Measured values: the supplement of paper PMC12042874
± gives the uncertainty stated by the source.

assay: amyloid nucleation score (Sup35N fusion, yeast selection) (log enrichment); library NNK2; higher = more nucleation; inactive = no reads after selection
Method in brief: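 Yeast lacking psi expressed peptides of 20 random codons fused to Sup35N, received 100 μM copper sulfate for 24 hours, and were then grown for 7 days at 30°C on medium lacking adenine and uracil. Illumina sequencing of input and output plasmid inserts provided the reads. Nucleation scores are DiMSum log enrichments of output over input, centred on the mode of non-aggregating sequences. Any sequence with under 100 input reads was excluded.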

Substance | amyloid nucleation score
CMQLSYSYSLTFEGQCHLVG | 4.27 ± 0.088
CNGLAQKIILSTRRLLLVPG | 0.537 ± 0.34
CNIVNFMWAGENFR | 5.48 ± 0.086
CNKTLLFIFPVLGQQDGDFG | 4.417 ± 0.044
CNLWSDLGWYYQAMWKIRRD | inactive
CNMFCFDCCLWFGGMRISST | 8.315 ± 0.042
CNRESEWIECVRGFLEYANG | 1.44 ± 0.11
CNRMGFHMFDCF | inactive
CNRQAAMKAPSETCDVVACF | 4.52 ± 0.083
CNSCSP | 0.811 ± 0.67
CNSRCEDWPWIERTPG | 0.571 ± 0.47
CNVLSRRNGKLRACFS | 0.732 ± 0.4
CNVTIIYVPYGEWTTFYLRL | 7.45 ± 0.082
CNVWDVSGDTFVTYGKDDRG | 0.275 ± 0.25
CNWGRTFCRRVSVPVRRSDL | -0.074 ± 1.1
CPIDYGTSVNHDNKVSILYL | 0.534 ± 0.51
CPSLRGVVVRSLSTGSSDAR | 0.163 ± 0.56
CQISGCYWV | 5.28 ± 0.074
CRGTIWIAYSRYYYYRMNDF | inactive
CRLADFAPFRHCFFSHDCSR | 3.57 ± 0.046
CRMMI | 0.591 ± 0.36
CRRHVMFYTCMLE | 4.27 ± 0.064
CRRTFDSLIS | -0.74 ± 0.78
CRYPFTPACTYMNLG | -0.114 ± 1
CSCQAVLLLASSRPAIKVRC | 1.86 ± 0.31
CSFSYGMYSK | 0.401 ± 0.23

Substance | amyloid nucleation score
CSMVNDLSFNIEARMQSWNS | 0.028 ± 0.79
CSQIRFGRADRLNETSIKLV | 0.333 ± 0.54
CSRKDYSYRVMKFVFCIYGL | 6.45 ± 0.061
CSSDSIYSSWWFSLYNITGE | inactive
CSSEDITYAWQWARWLRS | 0.494 ± 0.41
CSSFKSLIRLGTLNRRNRNE | 3.68 ± 0.059
CSSNCFYEAFVLGYKTHARE | 0.295 ± 1
CSSTAVFTRLIKADIWVRSA | -1.35 ± 0.36
CSVVGWE | 0.671 ± 0.66
CSVWRDLVAICLRD | inactive
CSYCFCCVH | 8.29 ± 0.065
CTCQVFPHNALCQGSWVLPV | 1.07 ± 0.27
CTDQRGLSIIVLGYNSHSMR | 5.682 ± 0.054
CTRRDFFGQTTAHVSVWCTG | 4.33 ± 0.081
CTRRRM | 1.63 ± 0.15
CTSVKQNDLKGSLIN | inactive
CTVCITKGWLMHVWYYAYRW | 0.902 ± 0.22
CVACLDM | inactive
CVGDAALWWVVFIYGEHSRV | 0.022 ± 0.41
CVGGWWPRQRLFCIWFIIAV | 1.72 ± 0.31
CVKRRWPEVIRVHVGGYSFN | 0.455 ± 0.5
CVLSKEI | 0.387 ± 0.3
CVLTRVFETTSCVSIHLF | -1.64 ± 0.79
CVSDCD | 3.45 ± 0.14
CVSEARRIE | -0.36 ± 0.35
CVSSRDRG | 0.439 ± 0.27

Substance | amyloid nucleation score
CVSVPFYQVCFVGPKMEPLG | 0.636 ± 0.18
CVSWRYFMFPCLVSLEMSSS | 3.71 ± 0.085
CVTDATVKNYI | -1.42 ± 0.78
CVVRFRGPYKFCWPQDRSYS | 0.247 ± 0.8
CVYPGEMLWRI | -0.609 ± 0.76
CWPCRMMKLVREESAVYTGG | 0.062 ± 0.34
CWRFVSCNTNYNWTMQGFYY | -1.38 ± 1.1
CWSPLGTFSLLALMGASKTL | 0.103 ± 0.42
CWVRISDLCLYKFVGVPMSV | 0.312 ± 0.8
CYFSDPVHLENPSINSISFW | inactive
CYMTFYVMLTLDRTQSHSGH | 7.411 ± 0.051
CYMYDSVTNWTYWLSG | -0.679 ± 0.26
CYSILFSLKQIDRLLITLPR | -1.04 ± 0.5
CYSMSRVVSNGEKHYD | 0.675 ± 0.4
CYSYWPRSPFIWY | -0.978 ± 1.1
DACYGITLDCCETLARSMSC | -0.382 ± 0.76
DADIRQ | 0.764 ± 0.47
DANTRGHSCRNCM | 0.195 ± 0.76
DAWYMDFLSCACWIHWR | 0.871 ± 0.45
DCRDLFLKKVWGYVGRLCEV | inactive
DCRFQIHVCDAYDK | inactive
DCSSVISKSSLIAVLCFHTN | 5.14 ± 0.058
DDASKKLYS | 0.967 ± 0.15
DDCVPQWEYK | 0.695 ± 0.42
DDFNERSSLHVVYDRF | -0.901 ± 1
DDGMCRRYCLGRKYTMGIEL | 1.78 ± 0.14

Substance | amyloid nucleation score
DDIIISPVPDHE | inactive
DDSTFKSRFVLGIPAICLGS | -1.37 ± 0.4
DDVYNSGYKELIRSQ | 0.348 ± 0.25
DEECTEPTWIGDEFDPLDIE | inactive
DEIQGLNRRYLPRG | 0.936 ± 0.52
DESSSRDETCGVFTHLVCVV | -0.249 ± 0.28
DFAFAFVVGTVLAISICVKH | -0.459 ± 0.56
DFFFCFRYTDLEQE | -0.195 ± 0.61
DFMRELYFMGSRPFEMLYMY | 0.102 ± 0.77
DFPQCKNTETLL | 0.279 ± 0.4
DFSAFNEGHQINHLIQGSV | -1.35 ± 0.62
DFTRYYFYIPHRRVHTVH | -0.763 ± 0.4
DFYMYSVVDLS | -0.767 ± 0.31
DGFHLNALHLESRQLGVGFS | 3.87 ± 0.069
DGFHQCAS | 3.74 ± 0.089
DGGREPIVFYSQNYVCNKFV | 6.775 ± 0.048
DGINLDICCCNTDKLNIDRI | inactive
DGLFGVTTWNSLFLWILKR | -1.1 ± 0.62
DGTGYGTSKLTWWRDFLKRC | -0.192 ± 0.63
DGVSVPSCRLKRKAVIAGWL | 0.662 ± 0.4
DGYLRYYSNLDG | 0.147 ± 1.1
DHHDTTHYYIWVDKYKYLV | -0.216 ± 0.64
DHLGWHEVTVSLELSFFYRV | 4.83 ± 0.11
DHLNGASRRMWLLTYFTVFE | inactive
DHRILILLTPQFSYDIWTVH | inactive
DIFITTSSFTLRCAYIIKGI | -1.44 ± 0.78

Substance | amyloid nucleation score
DIFLTLEFYISVETKGAKKA | 3.92 ± 0.05
DIGRLTLHGRVSADG | 0.748 ± 0.25
DISYGSSDINHCLVTYMWQC | 0.192 ± 1
DIVNLSEDGLSSNELFIARM | -0.52 ± 1.1
DIWIMI | -0.225 ± 0.45
DKANRDQWHQAKSSVCFGGV | 0.089 ± 0.56
DKANTRGGLRCYKMHQFAFV | 1.15 ± 0.21
DKDCVGIVLLFGQCVSITLA | inactive
DKFISLFKRGAHKDVQ | -0.42 ± 0.76
DKGEEPELIV | 0.742 ± 0.16
DKIVI | -0.978 ± 0.54
DKLVRWHLGMLIGGRGSCLF | 0.294 ± 0.8
DKSNLARFTSSKWS | 0.426 ± 0.35
DKYFLLAYGVWGSLRFLTLC | -0.288 ± 1
DLFVSGTVETFPANWGGMSR | 0.665 ± 0.42
DLGGQMNYLVLMGNDMWNV | -1.01 ± 0.78
DLGIYSLTNFKMLPST | 0.544 ± 0.52
DLLQREIDRSIVRLWIMEKG | 0.252 ± 0.49
DLRIREMDLGNWSWASR | 0.653 ± 0.23
DLSDIDRCGRLVNRESILLR | 1.45 ± 0.5
DLSRTRGTEKASRSVWLRSM | 3.97 ± 0.048
DLVVMSLRR | 6.18 ± 0.057
